In the DeepSol protein solubility set:

Experiment: soluble on expression in E. coli; label from the status in PepcDB or PDB records

Row | Sequence | soluble on expression in E. coli
1 | SRLMNEIRETRGLAYSVYSTFAPYQEKGPFEIGLQTKKEQAEQALQLTQKTLRDFVEQGPTEEELQAARQNIVGGFPLRIDSNQKILGYLGVIGFYDLPLTYLEDYVKAVEKVTVAQIRDAFKRRIDPAGMVTVVVGA | not soluble
2 | MGSDKIHHHHHHMLRSMYSGISGLKNFQTKLDVVGNNIANVNTFGYKKGRVTFKDLVSQSVGSASGNGGGVGGANPKQVGLGASMATVDSVSNQGALQNTGRTLDVAISGEGFFQIQTADGIRYARSGNFYTDLDGNLVTGDGNYVIGSDNAGPLGQPTIPLGGGYKTINIPANAQNLSIGKDGLVTYVDPAGTLQQAGYISLANFPNPGGLEKSGSNMYSISQNSGQPTSATPSTNGLGQLTSGTLEMSNVDLSEEFTEMIIAQRGFQANTRIITTSDQILEELVNLKR | not soluble
3 | TNTDQSIKFTSKSNSINKNNQNKELALLRDNLMNEAKVDEPLSFEKRFENFKNKYSDIHSLNNSVFSLHDVYDLLGGFKQSLTTFFDEVIAQQQKIKDADKIFPSTKDNPPKEENPNVLDTLANYQGAGFFPSLGKNGFNLPEAVFQNFTDFRINDYKIKNFNVDLVSENDIIKHDKVRYAFEV | not soluble
4 | MGHHHHHHSHSKEITVRGHNCPKPVLNFYEANFPANVMDVIARQNFTEPTAIQAQGWPVALSGLDMVGVAQTGSGKTLSYLLPAIVHINHQPFLERGDGPICLVLAPTRELAQQVQQVAAEYCRACRLKSTCIYGGAPKGPQIRDLERGVEICIATPGRLIDFLECGKTNLRRTTYLVLDEADRMLDMGFEPQIRKIVDQIRPDRQTLMWSATWPKEVRQLAEDFLKDYIHINIGALELSANHNILQIVDVCHDVEKDEKLIRLMEEIMSEKENKTIVFVETKRRCDELTRKMRRDGWPAMGIHGDKSQQERDWVLNEFKHGKAPILIATDVASRGLDVEDVKFVINYDYPNSSEDYIHRIGRTARSTKTGTAYTFFTPNNIKQVSDLISVLR | not soluble
5 | MSLVFYGRRLTEAIEVLKQSKISIMLANKGPLIYYRRTGGFPEGPVEKALGLSSLDDLVICPVHSVQPEVSTYLLLRLRTPFIIPPRSTATIYLKAPVAAGVYVTANGEQRLVDYFGPSVFKYALYGPPAVGQVCRFYITDIFSEVPEAGPWEAVTKVVVENTSDNYVEIRNVIYPIVYAQFYIDNMGNAYLETSKLSITSSNVGVVELRNEPPISGLPTCLKTEGGLPLPFLKPAGEKIAKFLMEFGLEGHHHHHH | not soluble
6 | MSKSICKSSMRAAVVRRFGAPDVIEAVESDMPRLEKNQVLVRNYAAGVNPVDTYIRAGQYGKLPNLPYVPGKDGAGFVELVGESVKNVKVGDRVWYGSEADSTAEYVAVNRPFELPEGVSFEEGASLGVPYLTAYRALFHLAGAKTGDVILVHGASGGVGSALMQLAAWRNIEAVGTAGSADGIRFVKSLGARNVYNHSDKQYVSKMKNDYPGGFNHIFEMAAHTNLNTDLGLLAPRGRVAVIGNRAETTINARQLMVTEGAVYGVALGMSSEAELLDFGINIVSFLKETEFRPLINKLYRLEQLGLAHEEIMNNKGAKGNLVVQIEH | not soluble
7 | MMNEKILIVDDQYGIRILLNEVFNKEGYQTFQAANGLQALDIVTKERPDLVLLDMKIPGMDGIEILKRMKVIDENIRVIIMTAYGELDMIQESKELGALTHFAKPFDIDEIRDAVKKYLPLKSN | soluble
8 | MTLNIYTEEWAPISFSVDGKPDGLAVQVVQEIQKRIDNQDPIKVVPWARGWKIITEQPNTVLFTMTRTAERERMFSLIGPVAVGTTNFYALKNSNLKINLEHHHHHH | not soluble
9 | MAHHHHHHMSLVASQEGLTDLVPCNDQCGGDYTLYTFGQSEKEVTITAPLAPGTRGKSLRVDIKVRHLQIEVPGKGTILAGELYKPINVDDSTWCIQDGKELVVVLTKTNIEYEEWWPHVVIGERQIDLKTLKPPSIRFSDLDGGAQATVAKMMHEQHEKRTDPAFTNA | soluble
10 | MDLYYRPGSAPCRSVLMTAKALGVEFDKKTIINTRAREQFTPEYLKINPQHTIPTLHDHGFALWESRAIMVYLVEKYGKDDKLFPKDVQKQALINQRLYFDMGTLYKSFSEYYYPQIFLKKPANEENYKKIEVAFEFLNTFLEGQTYSAGGDYSLADIAFLATVSTFDVAGFDFKRYANVARWYENAKKLTPGWEENWAGCQEFRKYFDN | soluble
11 | MSITHLMRQQVEELFKRFLEKTGLSEEATVYAVFIPKEEEVDEESVDVFEQRVNPKDAESVENFVSRLTKVALENDVKELKLYALVLDRDGETLIIAREENPEADEVIKELIERMKEEV | not soluble
12 | MAHHHHHHMWRRAACQAVTSRFFRPAVAASTASSSSALRESCRTGIIIGNPKQGMIDPIHVSWTDIAGSDTTPGARLAAGRVLAMLDMCAARTSQKAIDHQDCLTHERYLTCTVGVTNTMFSSPILHGDAVRLDGRLVCCGSSSMGIYIRFYRQSPSTRTETPAGHSFFTMVAITPDLKAAKVVPAIELTDPLDIELHNHYVKVRKLQEENKKNTAERLKRTLTTEEVQCSINQQKPIHARINSTRVEANRIFFTSCMNNNNTVFGGELMAWMEQHAVHCGRMFTGNRYVFTIGMHSVAFPEPVFATDWVTLEATVIYVRNTTMEVDVVLKAERKDAGTVITNRASFVLINNDDIGRKCAIPIGLELNGATQEELQQFMEARVRYHCSVARRDDFHASNLCTGTTKL | not soluble
13 | MTDEKKDDRPVYQAACHCGTVRFELRLTDGLRTARRCNCSLCRMRGAVAVSANLGDITVTQGEEALTLYQFHTREAKHYFCSRCGIYTFHQRRSAPDQYGVNVACIEGMSPFDFADVPVSEGRVHPKDRVDGGVGVAGWLRYEGNPEWGQGLEHHHHHH | soluble
14 | MDTLKRGKYAKFLHNYLVDNSSQRGYVLNLNAQWGAGKTYFINRWIDSIKDAHPVVYIDAWKQDYSDDPMLTVVSSIIDALEEHLPAGNKKAIALKNKATRFFKAAAPLLMKGLIKKATGMNIDDVEPETEKKEGSDLYNLTGEASAALAKCLIDDHNEKLKTVEHLRSDIKSLIEALDPKKKLKLPAFIFIDELDRCRPSYAVEMLEVIKHFFELENIVFVVATDTEQLQHAVKAVYGEGFDAQTYLGRFFRRRYSLSESSRFEFVKQMVGESYEIKSLEHHHHHH | not soluble
15 | MILLLAGTSDARELAVMIQQAGYNVTATVVTDHAAEQLRSAGIRAYVGRLDASQLADLAKAEGAKAIVDASHPFAEEASKNAMQAAADAGLPYIRYERQASSFSSEKVTFVDSYEEAADLAAEKGGVVMLTTGSKTIDIFAARLIGRPDVKVIARMLPRKDNLDKCERLGFSQEQIVMMQGPFTKELDRALYRHFGVTVVVTKESGKVGFVDEKIAAAEELGIDVIVIRRPRLSYGIVHHDFAGVLDALKQHAPLPTV | not soluble
16 | SLPNGEGLQLKENSESEGVSCHYWSLFDGHAGSGAAVVASRLLQHHITEQLQDIVDILKNSAVLPPTCLGEEPENTPANSRTLTRAASLRGGVGAPGSPSTPPTRFFTEKKIPHECLVIGALESAFKEMDLQIERERSSYNISGGCTALIVICLLGKLYVANAGDSRAIIIRNGEIIPMSSEFTPETERQRLQYLAFMQPHLLGNEFTHLEFPRRVQRKELGKKMLYRDFNMTGWAYKTIEDEDLKFPLIYGEGKKARVMATIGVTRGLGDHDLKVHDSNIYIKPFLSSAPEVRIYDLSKYDHGSDDVLILATDGLWDVLSNEEVAEAITQFLPNCDPDDPHRYTLAAQDLVMRARGVLKDRGWRISNDRLGSGDDISVYVIPLIHGNKLS | not soluble
17 | MGSDKIHHHHHHMSRSDARICAIHQPNFFPWLGYFDKIVRADIFVLLDDVQYQKTGGNWTNRVQMMIGQGPKWVTAPVDRSYSGVRQIREIRFSPVEREWREKLCSTITASYGRAAYFREVYPFIEPIIMNDSDFLSDYNSHAIAALCDYLEIESSKLVRSSQFNLQNNATDLLIDITKAVGAVRYLCGGGAQGYQEDEKFPRHGIQLIYQNFCHPIYTQANDAPFQPGLSIVDALMHCGRRGVIELLNRK | not soluble
18 | MDVSAYPFFRRDMSWLSFNERVLMEAADRTLPVYDRIKFLSIFSSNLEEFYTVRVAYHQAVLQKRRDRSEAEEDSDADAHILQAIRETVIRQDELYYRIFYDQILPTLEEHGIRLRTHAPTHPDHKAYLRRFFHEEIFPLLYPMLLLPSKVRTFIRSGRVYLAVRLKEKETDEAYSYALLNVPTDGLPRFVELPRLQTDTFYYYSFLEDIIKEHLDVVFPGYEVMDSYSIKVSRDADLLLDAQRPEDLPGEIRKKVKTRKLGAPTRFMYDGRMPDEVLRYICSSCDIDPEEAIRSGNYVNLQDLAMLPNPFAPRLETLTPEPLLSKHLEQAPSLMEGIRRKDYLIHVPYYTYDYVVRLLMEAAISPDVSEIRLTQYRVAENSSIISALEAAAQSGKKVSVFVELKARFDEENNLRLSERMRRSGIRIVYSMPGLKVHAKTALILYHTPAGERPQGIALLSTGNFNETTARIYSDTTLMTANTDIVHDVYRLFRILDGDPEPARFSRLLVARYNMGEAITNLIEREIENVKRGKRGYMLLKMNGLQDKNVITQLYRASEAGVEIDLIVRGICCLVPDMPQSRNIRVTRLVDMYLEHSRIWCFHNGGKEEVFISSADWMKRNLYNRIETACPVLDPALRREIIDILEIQLRDNIKACRIDSSLNNIYKHNSDEKPVRAQAAIYRYLKGKEEATPAAK | not soluble
19 | TMEEELEPVVRHLVEQRWPFRLHATYNESITRMLDVFEKVNRDIPFNGLPWFFDHAETITPQNIERVRALGGGIAIQDRMAFQGEYFVDRYGAKAAEQTPPIKRMLEMGVPVGAGTDATRVSSYNPWTSLYWLVSGKTVGGMELYPEGLSRDTALQLFTQGSAWFSSEQGKKGQIKVGQLADLAALSLDFFSVDEEAIKGIESVLTIVDGKVVYGAGEFDKFGPPQVPVLPEWSPVTKVPGHWRVGTPSLAAAVHQCSGPCGVHAHSHEKARHSSVPVNDFQGFWGALGCSCFA | not soluble
20 | MQITQGQRIPLSTLIQGNDLTLSIVIKSAHVIDYVCFGVDANGKLSDDRYMIFFNQPTSPCNSVKQANGGDFQLALDSLPASIDRLVFTASIDGAGVMSDIQASHFSIQHQGREVARGEFSGATFAAEKAIMVADIYRKNGEWRIASNLQGYNAGLDALVGHFGGVADAPPAAPAAPARISLEKKIADAAPQLISLAKKAQVSLEKAKLTDTKARVGLVLDASGSMNPQYTRGHVQEVVDRLIPLAVHFDDDGALDCWAFGAKPQQLNAITLKNFQNFIKTDHGGWKDWELGSRINDEPKAMRMVIDYYKKSGDKTPVYILFISDGGVHQDREITKLMIEAAKLPIFWQFVGLGGRGYGILEKLDDMGGRVVDNCNFFALDRLDEVPEEKLYDLLMEEFPDWLNAAKGAGIL | not soluble
21 | MSLNRKLLTADERQARDTERRSQLDVALMEGVQAILDSDSFKAVLAANAKFHSYSVNNAMLIWLQNPAAERVAGFHTWRKLGRSVKKGAKGIMIYAPRVATNVDAATGSEETHVYFGIEHVFDISQTEGDDIPTLDCPVLTEERGHDVYDRLVTYATRDGLTVSSDVAHELSEAMGYYSAVSKRIWVRPTAKAQMLKTLIHEIAHHLTEGKHTREAHETIAEGVAFQVCACLGIDSGERSFPYIAGWSASEGGTALIKQVLGHIQAITKQVMAIVEPADEANEGAEGHHHHHH | soluble
22 | MKIVLISGLSGSGKSVALRQMEDSGYFCVDNLPLEMLPALVSYHIERADETELAVSVDVRSGIDIGQAREQIASLRRLGHRVEVLFVEAEESVLVRRFSETRRGHPLSNQDMTLLESLKKEREWLFPLKEIAYCIDTSKMNAQQLRHAVRQWLKVERTGLLVILESFGFKYGVPNNADFMFDMRSLPNPYYDPELRPYTGMDKPVWDYLDGQPLVQEMVDDIERFVTHWLPRLEDESRSYVTVAIGCTGGQHRSVYIVEKLARRLKGRYELLIRHRQAQNLSDR | not soluble
